Molecular target: BLM (UniProt P54132)
Test: co-IP and western blot
Settings: reference: wild type USP37; sites S114

binding against the reference: weaker
Substance: USP37 (from UniProt Q86T82) S114A

From PMC8565321
